From the supplement of paper PMC10126150
± gives the standard deviation of the averaged measurements.

System: ATP
Test: switch fluorescence ratio, 500 uM ATP over buffer (Cy3 cluster intensity, sum of 5 cycles each) (fold (ratio)); higher = stronger signal-on switching upon ATP binding; sequences stand for … in TCGTCGGCAGCGTCAGATGTGTATAAGAGACAGTTTTTTTTTTTTTTTTTTTTTTTTT…TC
Details: aptamer strand: ATP DNA aptamer (quencher-CACCTGGGGGAGTATTGCGGAGGAAGG + anchor), 100 nM annealed; ATP concentration: 500 uM
Procedure, shortened: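 Cy3-labelled switching-strand clusters on a modified Illumina MiSeq flow-cell were annealed to 100 nM quencher-labelled ATP aptamer, imaged in selection buffer, then imaged after 15 min with 500 uM ATP at 22 °C. Five buffer/ATP cycles ran, with NaOH stripping and re-annealing between them. The fluorescence ratio is summed target-cycle over summed buffer-cycle Cy3 intensity per cluster, averaged per switch-domain sequence. Clusters outside 100-1000 RFU were excluded.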
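Note: ATP exposure 15 min at 22 °C before imaging.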

Row | Sequence | switch fluorescence ratio
1 | TGCATGCAGG | 1.02 ± 0.015
2 | TGCATGGGCT | 1.05 ± 0.12
3 | TGCATGGGGG | 0.999 ± 0.044
4 | TGCATGTCCT | 1.029 ± 0.0088
5 | TGCATGTGGC | 0.988 ± 0.012
6 | TGCATTAGAG | 1.02 ± 0.034
7 | TGCATTTAGT | 1.006 ± 0.0086
8 | TGCATTTTAC | 1.28 ± 0.082
9 | TGCCAGATTT | 0.993 ± 0.041
10 | TGCCCGGGGG | 1.24 ± 0.26
11 | TGCCCGTACG | 1 ± 0.033
12 | TGCCGACGTA | 1.03 ± 0.017
13 | TGCCGGCGCT | 0.989 ± 0.038
14 | TGCCGGGGAC | 1.04 ± 0.034
15 | TGCCGGGGGA | 1.01 ± 0.018
16 | TGCCGGGGGG | 0.99 ± 0.011
17 | TGCCGTTTTC | 1.04 ± 0.011
18 | TGCCTAAAGT | 0.976 ± 0.016
19 | TGCCTAAATA | 1 ± 0.031
20 | TGCCTGCGGA | 1.001 ± 0.005
21 | TGCCTTGAGA | 1 ± 0.015
22 | TGCGAAGGAG | 0.9794 ± 0.0063
23 | TGCGAATGAG | 0.993 ± 0.0049

Row | Sequence | switch fluorescence ratio
24 | TGCGACAGTT | 1.006 ± 0.0029
25 | TGCGACGATG | 1.03 ± 0.027
26 | TGCGACTGG | 0.9979 ± 0.0067
27 | TGCGATGTAG | 0.9889 ± 0.005
28 | TGCGATTAAG | 1 ± 0.047
29 | TGCGATTCG | 0.9931 ± 0.0076
30 | TGCGATTGGT | 1.01 ± 0.012
31 | TGCGCAACTT | 1.0306 ± 0.001
32 | TGCGCATAGA | 1.02 ± 0.018
33 | TGCGGAGAAT | 1.028 ± 0.0026
34 | TGCGGCAATT | 1.09 ± 0.012
35 | TGCGGCGCTT | 1.97 ± 1.3
36 | TGCGGGAGTG | 0.965 ± 0.023
37 | TGCGGGGAAT | 0.9707 ± 0.0068
38 | TGCGGGGGCT | 1.002 ± 0.0025
39 | TGCGGGGGGC | 0.991 ± 0.012
40 | TGCGGGGTTA | 0.986 ± 0.024
41 | TGCGGGTAGG | 1.03 ± 0.012
42 | TGCGGTGGGG | 0.976 ± 0.013
43 | TGCGGTTAGC | 1.004 ± 0.006
44 | TGCGTAAGGC | 1.18 ± 0.025
45 | TGCGTAGTGC | 1.09 ± 0.036
46 | TGCGTATATG | 1.005 ± 0.0085

Row | Sequence | switch fluorescence ratio
47 | TGCGTGGCGG | 1.02 ± 0.037
48 | TGCGTGTGGG | 1.0208 ± 0.001
49 | TGCGTGTTTT | 1.03 ± 0.015
50 | TGCGTTAT | 1.07 ± 0.036
51 | TGCGTTCGTC | 0.993 ± 0.015
52 | TGCTAATCTG | 0.958 ± 0.025
53 | TGCTACGGCG | 1.02 ± 0.019
54 | TGCTAGCCTC | 0.9724 ± 0.004
55 | TGCTAGGGGG | 0.989 ± 0.02
56 | TGCTAGGGGT | 1.41 ± 0.051
57 | TGCTATACTT | 1.46 ± 0.15
58 | TGCTATTATG | 0.988 ± 0.048
59 | TGCTCATTCG | 1.01 ± 0.024
60 | TGCTCCAAGT | 1.03 ± 0.013
61 | TGCTCCTTTT | 1 ± 0.034
62 | TGCTCGGATG | 0.993 ± 0.03
63 | TGCTCGGGAC | 1.09 ± 0.047
64 | TGCTCTACCT | 1.18 ± 0.057
65 | TGCTCTGCGT | 1.17 ± 0.012
66 | TGCTGAATCT | 0.996 ± 0.046
67 | TGCTGACCGA | 1.04 ± 0.035
68 | TGCTGCGGCT | 1.01 ± 0.019
69 | TGCTGCTAGC | 0.985 ± 0.036

Row | Sequence | switch fluorescence ratio
70 | TGCTGGAGGG | 0.955 ± 0.011
71 | TGCTGGATGA | 1 ± 0.047
72 | TGCTGGCGCG | 1 ± 0.033
73 | TGCTGGGCC | 1.02 ± 0.083
74 | TGCTGGGGCG | 0.9876 ± 0.0022
75 | TGCTGGGGGT | 1.03 ± 0.068
76 | TGCTGGGGTG | 1.04 ± 0.1
77 | TGCTTAAGAT | 0.99 ± 0.023
78 | TGCTTATCTG | 0.99 ± 0.032
79 | TGCTTATTTT | 1.01 ± 0.065
80 | TGCTTCTGAA | 0.9635 ± 0.0092
81 | TGCTTCTTTG | 0.979 ± 0.011
82 | TGCTTGGGTA | 1.01 ± 0.021
83 | TGCTTTAAAC | 0.995 ± 0.032
84 | TGCTTTTTGG | 1.01 ± 0.032
85 | TGGAAAAAAG | 0.9901 ± 0.0015
86 | TGGAAAAAG | 0.989 ± 0.053
87 | TGGAAAACTT | 1.11 ± 0.16
88 | TGGAACAGGG | 1.03 ± 0.036
89 | TGGAACTTTT | 0.974 ± 0.021
90 | TGGAAGCCGG | 0.957 ± 0.037
91 | TGGAAGGAAG | 0.9998 ± 0.0073
92 | TGGAAGGGTT | 0.994 ± 0.028

Row | Sequence | switch fluorescence ratio
93 | TGGAAGTGAG | 0.969 ± 0.055
94 | TGGAAGTTAG | 0.964 ± 0.029
95 | TGGAATGGAT | 1.01 ± 0.043
96 | TGGAATTTTT | 0.987 ± 0.03
97 | TGGACCATTT | 1.01 ± 0.0021
98 | TGGACCGGGG | 1.016 ± 0.0034
99 | TGGACGCGGG | 1.03 ± 0.016
100 | TGGACGGGGA | 1.03 ± 0.031
101 | TGGACGTTGA | 0.994 ± 0.033
102 | TGGACTTATA | 1.02 ± 0.012
103 | TGGACTTGGA | 0.9869 ± 0.0031
104 | TGGAGATTGG | 0.969 ± 0.023
105 | TGGAGCCCCG | 0.999 ± 0.015
106 | TGGAGCGCCG | 1.01 ± 0.028
107 | TGGAGCTCTG | 0.981 ± 0.027
108 | TGGAGGCTTT | 1.009 ± 0.0073
109 | TGGAGGGAGG | 1.01 ± 0.023
110 | TGGAGGGGAT | 1.02 ± 0.075
111 | TGGAGGGGGC | 1.01 ± 0.046
112 | TGGAGGGTCG | 1.021 ± 0.0023
113 | TGGAGTACGG | 1.008 ± 0.0036
114 | TGGAGTTACT | 0.994 ± 0.061
115 | TGGAGTTAGA | 0.996 ± 0.035

Row | Sequence | switch fluorescence ratio
116 | TGGATAAGGT | 1.05 ± 0.13
117 | TGGATAAGTT | 1.03 ± 0.025
118 | TGGATAGGGT | 0.961 ± 0.037
119 | TGGATATGAT | 0.998 ± 0.0028
120 | TGGATATGGT | 1.01 ± 0.013
121 | TGGATCATAA | 0.973 ± 0.068
122 | TGGATCATGG | 0.9753 ± 0.009
123 | TGGATCTTCG | 0.9903 ± 0.0077
124 | TGGATGCGGG | 1.02 ± 0.032
125 | TGGATGGAGA | 1.006 ± 0.008
126 | TGGATGGCC | 1.02 ± 0.032
127 | TGGATGGCCC | 1.02 ± 0.016
128 | TGGATGGGGG | 0.992 ± 0.022
129 | TGGATGTCGT | 1.008 ± 0.0094
130 | TGGATGTGAT | 1.03 ± 0.049
131 | TGGATGTGGG | 1.03 ± 0.031
132 | TGGATGTTTG | 1.02 ± 0.018
133 | TGGATTAGAG | 0.9672 ± 0.0022
134 | TGGATTAGGT | 1.01 ± 0.021
135 | TGGATTATAG | 1.02 ± 0.033
136 | TGGATTTGGA | 0.999 ± 0.02
137 | TGGATTTGGT | 0.988 ± 0.012
138 | TGGATTTTGG | 0.98 ± 0.021

Row | Sequence | switch fluorescence ratio
139 | TGGCAATTAG | 1.1 ± 0.074
140 | TGGCACCTTT | 1.11 ± 0.036
141 | TGGCACGGGC | 1.02 ± 0.047
142 | TGGCAGAGGC | 1.04 ± 0.038
143 | TGGCAGTCGG | 0.978 ± 0.019
144 | TGGCATTTTT | 0.991 ± 0.025
145 | TGGCCACTT | 0.986 ± 0.023
146 | TGGCCGGGCA | 2.13 ± 1.6
147 | TGGCGAAGGT | 0.9747 ± 0.0085
148 | TGGCGCTTTT | 0.9976 ± 0.0079
149 | TGGCGGCTGG | 0.996 ± 0.018
150 | TGGCGGGGCA | 0.998 ± 0.035
151 | TGGCGGTGGC | 0.9806 ± 0.006
152 | TGGCGTAGGT | 1.005 ± 0.0083
153 | TGGCGTAGTT | 0.991 ± 0.037
154 | TGGCGTGTCA | 1.02 ± 0.051
155 | TGGCGTTTAC | 1.46 ± 0.64
156 | TGGCGTTTTG | 0.9687 ± 0.0069
157 | TGGCTCAGGC | 1 ± 0.025
